Test system: Escherichia coli TOP10
Assay: shrunken log2 fold change of peptide-encoding DNA abundance (4.5 h post-induction vs induction); higher = less antimicrobial activity (less host growth inhibition)
Settings: time post-induction: 4.5 h; library: site-saturation at positions 5, 18, 19, 20
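Also: peptides expressed intracellularly from a pBAD plasmid library in pooled LB shake-flask culture, induced with 0.3% L-arabinose, DNA abundance read by NGS, three biological replicates, DESeq2 with apeglm shrinkage.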

Sequence	shrunken log2 fold change
RRIRFRPPRLPRPRPRPNRHPRP	-0.874
RRIRERPPRLPRPRPRPNSCPRP	-0.128
RRIRCRPPRLPRPRPRPMNGPRP	-0.0977
RRIRYRPPRLPRPRPRPCTRPRP	-0.111
RRIRFRPPRLPRPRPRPKYQPRP	-0.534
RRIRRRPPRLPRPRPRPINWPRP	-0.0685
RRIRERPPRLPRPRPRPKMVPRP	-0.22
RRIRWRPPRLPRPRPRPGHLPRP	0.0651
RRIRFRPPRLPRPRPRPILNPRP	-0.692
RRIRDRPPRLPRPRPRPWVPPRP	0.164
RRIRGRPPRLPRPRPRPWEWPRP	0.911
RRIRIRPPRLPRPRPRPDNGPRP	-0.375
RRIRRRPPRLPRPRPRPQMNPRP	-0.107
RRIRGRPPRLPRPRPRPTHGPRP	0.487
RRIRGRPPRLPRPRPRPAEHPRP	0.352
RRIRHRPPRLPRPRPRPDYEPRP	0.00408
RRIRDRPPRLPRPRPRPACLPRP	0.723
RRIRFRPPRLPRPRPRPYRPPRP	-1.76
RRIRLRPPRLPRPRPRPTKHPRP	-0.14
RRIRCRPPRLPRPRPRPHVKPRP	-0.284
RRIRPRPPRLPRPRPRPFSTPRP	-0.317
RRIRSRPPRLPRPRPRPRWVPRP	0.218
RRIRLRPPRLPRPRPRPMPYPRP	-0.0714
RRIRFRPPRLPRPRPRPHARPRP	0.285
RRIRFRPPRLPRPRPRPTGYPRP	0.0801

Sequence	shrunken log2 fold change
RRIRNRPPRLPRPRPRPIWNPRP	-0.146
RRIRNRPPRLPRPRPRPEHIPRP	-0.313
RRIRKRPPRLPRPRPRPNMKPRP	0.125
RRIRPRPPRLPRPRPRPEPMPRP	0.542
RRIRDRPPRLPRPRPRPSGDPRP	0.163
RRIRIRPPRLPRPRPRPKNIPRP	-0.733
RRIRLRPPRLPRPRPRPKWNPRP	-0.299
RRIRIRPPRLPRPRPRPGHFPRP	-0.0592
RRIRMRPPRLPRPRPRPKTKPRP	0.557
RRIRYRPPRLPRPRPRPGMIPRP	-0.252
RRIRRRPPRLPRPRPRPGNFPRP	0.155
RRIRPRPPRLPRPRPRPWCGPRP	0.0629
RRIRDRPPRLPRPRPRPTEIPRP	0.23
RRIRMRPPRLPRPRPRPDCTPRP	2.27
RRIRARPPRLPRPRPRPYSWPRP	-0.0849
RRIRSRPPRLPRPRPRPRAIPRP	0.134
RRIRWRPPRLPRPRPRPRDRPRP	0.909
RRIRYRPPRLPRPRPRPKQDPRP	-0.488
RRIRDRPPRLPRPRPRPCWQPRP	0.0562
RRIRKRPPRLPRPRPRPQRLPRP	0.308
RRIRRRPPRLPRPRPRPRFMPRP	0.055
RRIRMRPPRLPRPRPRPFFMPRP	-0.121
RRIRDRPPRLPRPRPRPWFKPRP	-0.203
RRIRQRPPRLPRPRPRPVMAPRP	-0.38
RRIRTRPPRLPRPRPRPLTAPRP	-0.32

Sequence	shrunken log2 fold change
RRIRPRPPRLPRPRPRPMSKPRP	-0.276
RRIRFRPPRLPRPRPRPWFNPRP	-0.897
RRIRTRPPRLPRPRPRPCCRPRP	0.0338
RRIRQRPPRLPRPRPRPVKDPRP	-0.03
RRIRARPPRLPRPRPRPSNQPRP	-0.0197
RRIRMRPPRLPRPRPRPWSQPRP	-0.189
RRIRSRPPRLPRPRPRPGWIPRP	0.0994
RRIRCRPPRLPRPRPRPILTPRP	-0.302
RRIRTRPPRLPRPRPRPWMTPRP	-0.0339
RRIRMRPPRLPRPRPRPLSTPRP	0.0164
RRIRARPPRLPRPRPRPVENPRP	0.25
RRIRQRPPRLPRPRPRPLLDPRP	0.525
RRIRLRPPRLPRPRPRPGGVPRP	0.0323
RRIRGRPPRLPRPRPRPAVPPRP	0.686
RRIRYRPPRLPRPRPRPATIPRP	-1.16
RRIRIRPPRLPRPRPRPGRFPRP	0.138
RRIRFRPPRLPRPRPRPSIMPRP	-0.65
RRIRMRPPRLPRPRPRPEFHPRP	0.0755
RRIRSRPPRLPRPRPRPSKKPRP	-0.334
RRIRLRPPRLPRPRPRPVDDPRP	-0.219
RRIRIRPPRLPRPRPRPSRPPRP	-0.00676
RRIRQRPPRLPRPRPRPCNGPRP	-0.0134
RRIRIRPPRLPRPRPRPVGIPRP	0.16
RRIRWRPPRLPRPRPRPWHHPRP	-0.0157
RRIRQRPPRLPRPRPRPIKVPRP	0.0441

Sequence	shrunken log2 fold change
RRIRQRPPRLPRPRPRPFCMPRP	-0.0373
RRIRRRPPRLPRPRPRPAFMPRP	0.169
RRIRSRPPRLPRPRPRPYMCPRP	-0.903
RRIRIRPPRLPRPRPRPWSVPRP	-0.541
RRIRLRPPRLPRPRPRPYPSPRP	0.085
RRIRPRPPRLPRPRPRPSPHPRP	-0.367
RRIRARPPRLPRPRPRPACWPRP	0.849
RRIRTRPPRLPRPRPRPMTIPRP	-0.137
RRIRTRPPRLPRPRPRPFRGPRP	-0.175
RRIRERPPRLPRPRPRPRVSPRP	0.0184
RRIRTRPPRLPRPRPRPYCLPRP	-0.999
RRIRLRPPRLPRPRPRPDFCPRP	-0.0853
RRIRTRPPRLPRPRPRPYAHPRP	-0.239
RRIRARPPRLPRPRPRPIWEPRP	0.473
RRIRARPPRLPRPRPRPFELPRP	-0.146
RRIRCRPPRLPRPRPRPKHKPRP	-0.164
RRIRCRPPRLPRPRPRPVPIPRP	0.0325
RRIRWRPPRLPRPRPRPCGTPRP	0.481
RRIRSRPPRLPRPRPRPLGWPRP	0.76
RRIRCRPPRLPRPRPRPPNLPRP	-0.0983
RRIRFRPPRLPRPRPRPMPKPRP	0.856
RRIRYRPPRLPRPRPRPWVFPRP	-0.0309
RRIRARPPRLPRPRPRPFAIPRP	-0.239
RRIRTRPPRLPRPRPRPHVGPRP	0.0439
RRIRCRPPRLPRPRPRPYRQPRP	0.00128

Sequence	shrunken log2 fold change
RRIRGRPPRLPRPRPRPASTPRP	0.653
RRIRERPPRLPRPRPRPTGSPRP	-0.211
RRIRARPPRLPRPRPRPCGSPRP	-0.0125
RRIRNRPPRLPRPRPRPYPAPRP	0.0741
RRIRCRPPRLPRPRPRPGIRPRP	-0.107
RRIRMRPPRLPRPRPRPHCKPRP	0.00214
RRIRNRPPRLPRPRPRPTQDPRP	0.387
RRIRCRPPRLPRPRPRPFAWPRP	0.0983
RRIRSRPPRLPRPRPRPRYSPRP	-0.232
RRIRNRPPRLPRPRPRPHAEPRP	0.00246
RRIRHRPPRLPRPRPRPNCFPRP	0.0486
RRIRVRPPRLPRPRPRPELCPRP	0.0749
RRIRNRPPRLPRPRPRPVIEPRP	-0.0754
RRIRPRPPRLPRPRPRPTANPRP	0.297
RRIRDRPPRLPRPRPRPTKRPRP	0.123
RRIRERPPRLPRPRPRPSCRPRP	-0.249
RRIRNRPPRLPRPRPRPTQSPRP	0.291
RRIRMRPPRLPRPRPRPDYYPRP	-0.111
RRIRHRPPRLPRPRPRPIWFPRP	1.65
RRIRQRPPRLPRPRPRPKVIPRP	-0.0316
RRIRPRPPRLPRPRPRPFNSPRP	-0.764
RRIRGRPPRLPRPRPRPMKFPRP	0.0112
RRIRVRPPRLPRPRPRPSCGPRP	-0.113
RRIRNRPPRLPRPRPRPAGTPRP	0.0756
RRIRYRPPRLPRPRPRPEFQPRP	-0.47

Reference: the supplement of paper PMC9112550, “Optimization of the antimicrobial peptide Bac7 by deep mutational scanning” (BMC Biology, 2022)
